Test results published in patent publication US20240124607A1 (Merck Sharp & Dohme, published 2024).

T1: Human CEACAM5 I113T (human, UniProt P06731 35-685, limits assumed)
T1 sequence: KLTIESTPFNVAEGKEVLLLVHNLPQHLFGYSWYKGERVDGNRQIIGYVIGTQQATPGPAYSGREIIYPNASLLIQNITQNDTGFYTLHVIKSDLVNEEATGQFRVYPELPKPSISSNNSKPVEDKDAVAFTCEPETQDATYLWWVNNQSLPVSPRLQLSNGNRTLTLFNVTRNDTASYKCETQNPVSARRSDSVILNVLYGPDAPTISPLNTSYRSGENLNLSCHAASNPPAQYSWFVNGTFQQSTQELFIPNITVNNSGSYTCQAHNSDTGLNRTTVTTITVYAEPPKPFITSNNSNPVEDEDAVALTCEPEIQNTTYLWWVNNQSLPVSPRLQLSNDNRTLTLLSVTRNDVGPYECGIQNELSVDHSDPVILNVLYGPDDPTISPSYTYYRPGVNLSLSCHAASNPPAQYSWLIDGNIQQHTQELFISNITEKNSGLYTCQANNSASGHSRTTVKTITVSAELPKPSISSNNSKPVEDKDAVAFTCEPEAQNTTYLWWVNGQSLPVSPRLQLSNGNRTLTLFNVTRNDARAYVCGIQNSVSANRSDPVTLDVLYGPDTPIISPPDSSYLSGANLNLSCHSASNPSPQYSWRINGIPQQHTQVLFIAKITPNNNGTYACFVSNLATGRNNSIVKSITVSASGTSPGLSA

T2: Human CEACAM5 V83A (human, UniProt P06731 35-685, limits assumed)
T2 sequence: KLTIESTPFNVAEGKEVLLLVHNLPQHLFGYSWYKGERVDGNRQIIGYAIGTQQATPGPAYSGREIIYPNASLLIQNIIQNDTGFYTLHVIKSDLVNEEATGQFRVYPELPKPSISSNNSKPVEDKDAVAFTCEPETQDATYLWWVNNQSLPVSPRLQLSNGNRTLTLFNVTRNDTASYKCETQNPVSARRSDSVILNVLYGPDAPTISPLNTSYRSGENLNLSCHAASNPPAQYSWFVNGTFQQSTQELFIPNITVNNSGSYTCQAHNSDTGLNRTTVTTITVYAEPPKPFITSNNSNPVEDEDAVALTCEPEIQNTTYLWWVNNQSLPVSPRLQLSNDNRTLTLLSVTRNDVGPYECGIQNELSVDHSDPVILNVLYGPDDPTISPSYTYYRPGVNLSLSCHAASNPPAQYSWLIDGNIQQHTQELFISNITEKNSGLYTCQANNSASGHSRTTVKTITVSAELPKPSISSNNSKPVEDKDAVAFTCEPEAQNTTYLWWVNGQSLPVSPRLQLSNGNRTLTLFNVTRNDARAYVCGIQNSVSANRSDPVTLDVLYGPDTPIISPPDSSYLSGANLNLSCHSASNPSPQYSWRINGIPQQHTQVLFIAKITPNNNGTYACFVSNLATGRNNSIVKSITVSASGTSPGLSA

T3: Human CEACAM5 I80V V83A I112V I113T (human, UniProt P06731 35-685, limits assumed)
T3 chain: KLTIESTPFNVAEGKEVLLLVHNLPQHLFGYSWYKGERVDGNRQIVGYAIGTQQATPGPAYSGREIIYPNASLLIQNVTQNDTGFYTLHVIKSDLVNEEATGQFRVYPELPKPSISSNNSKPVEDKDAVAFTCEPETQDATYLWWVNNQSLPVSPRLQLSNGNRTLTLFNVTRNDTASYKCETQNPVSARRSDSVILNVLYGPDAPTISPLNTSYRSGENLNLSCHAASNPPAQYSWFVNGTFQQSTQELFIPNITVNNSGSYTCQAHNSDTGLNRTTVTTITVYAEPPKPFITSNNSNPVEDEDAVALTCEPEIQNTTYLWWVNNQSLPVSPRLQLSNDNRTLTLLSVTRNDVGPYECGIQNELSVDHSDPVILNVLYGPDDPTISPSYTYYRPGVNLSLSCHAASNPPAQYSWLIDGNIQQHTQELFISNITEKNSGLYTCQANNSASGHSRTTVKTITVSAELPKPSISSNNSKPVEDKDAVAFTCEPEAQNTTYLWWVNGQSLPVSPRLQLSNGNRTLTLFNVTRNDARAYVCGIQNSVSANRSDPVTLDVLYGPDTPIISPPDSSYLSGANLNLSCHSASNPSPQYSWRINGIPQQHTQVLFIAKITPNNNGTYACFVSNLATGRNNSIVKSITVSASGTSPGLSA


Columns and labels:
Human CEACAM5 I113T = biological target: T1, Human CEACAM5 I113T; experiment: SPR, 37C, pH 7.4
Human CEACAM5 V83A = biological target: T2, Human CEACAM5 V83A; experiment: SPR, 37C, pH 7.4
[1] = biological target: T3, Human CEACAM5 I80V V83A I112V I113T; experiment: SPR, 37C, pH 7.4
[2] = biological target: T4, human CD16A (FcγRIIIA) V158 (human, UniProt P08637 17-208, limits assumed, biotinylated in the assay of Table 21); experiment: SPR, biotin-CD16A on SA chip, 25C, pH 6.0
T4 construct: also called CD16A (V158/V176)
Experimental: (§1) Binding to human and cynomolgus CD16A was assessed using biotinylated CD16A captured on a streptavidin (SA) sensor chip (Cytiva, #BR100531). AB0411, AB0466, or AB0621 was titrated from 1500 nM at 25° C. at 30 μL/min for 150 sec association followed by 300 sec dissociation. The surface of the chip was regenerated with 2 mM sodium hydroxide for 5 sec at 30 μL/min. Running buffer was HBS-EP+. […] The V158 isoform bound ˜2- to 3-fold tighter than the F158 isoform as expected.

Cyno FcγRIIIA = biological target: T5, Cyno FcγRIIIA (cynomolgus monkey, UniProt Q8SPW2 17-208, limits assumed, biotinylated); experiment: SPR, biotin-CD16A on SA chip, 25C, pH 6.0
T5 construct: also called cynomolgus CD16A
Experimental: as §1

T4 sequence (P08637 17-208 F176V limits assumed): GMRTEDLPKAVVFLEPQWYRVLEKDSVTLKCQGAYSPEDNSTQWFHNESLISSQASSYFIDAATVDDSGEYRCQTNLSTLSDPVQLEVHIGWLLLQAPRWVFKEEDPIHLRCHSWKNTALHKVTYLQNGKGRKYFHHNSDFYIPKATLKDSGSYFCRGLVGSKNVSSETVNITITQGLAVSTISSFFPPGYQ
T5 sequence (Q8SPW2 17-208 limits assumed): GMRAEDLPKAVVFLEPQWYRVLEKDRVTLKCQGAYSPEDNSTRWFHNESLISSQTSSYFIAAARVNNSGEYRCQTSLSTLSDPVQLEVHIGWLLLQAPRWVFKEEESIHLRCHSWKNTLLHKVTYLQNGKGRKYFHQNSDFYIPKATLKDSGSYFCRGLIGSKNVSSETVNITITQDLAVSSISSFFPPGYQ

Row | Kd (Human CEACAM5 I113T) [µM] | kon (Human CEACAM5 I113T) [M⁻¹ s⁻¹] | Kd (Human CEACAM5 V83A) [µM] | kon (Human CEACAM5 V83A) [M⁻¹ s⁻¹] | Kd [1] [µM] | kon [1] [M⁻¹ s⁻¹] | Kd [2] [µM] | koff [2] [s⁻¹] | kon [2] [M⁻¹ s⁻¹] | Kd (Cyno FcγRIIIA) [µM] | koff (Cyno FcγRIIIA) [s⁻¹] | kon (Cyno FcγRIIIA) [M⁻¹ s⁻¹] | Binder
1 | 0.0084 | 160000 | 0.066 | 140000 | 0.061 | 590000 | 0.047 | 0.038 | 820000 | 0.019 | 0.047 | 2.4e+06 | AB0466 F3' CEACAM5 TriNKET (bispecific antibody, human IgG1, kappa) not shown heavy: EVQLVESGGGLVKPGGSLRLSCAASGFTFSSYSMNWVRQAPGKGLEWVSSISSSSSYIYYADSVKGRFTISRDNAKNSLYLQMNSLRAEDTAVYYCARGAPIGAAAGWFDPWGQGTLVTVSSASTKGPSVFPLAPSSKSTSGGTAALGCLVKDYFPEPVTVSWNSGALTSGVHTFPAVLQSSGLYSLSSVVTVPSSSLGTQTYICNVNHKPSNTKVDKKVEPKSCDKTHTCPPCPAPELLGGPSVFLFPPKPKDTLMISRTPEVTCVVVDVSHEDPEVKFNWYVDGVEVHNAKTKPREEQYNSTYRVVSVLTVLHQDWLNGKEYKCKVSNKALPAPIEKTISKAKGQPREPQVCTLPPSRDELTENQVSLTCLVKGFYPSDIAVEWESNGQPENNYKTTPPVLDSDGSFFLYSWLTVDKSRWQQGNVFSCSVMHEALHNHYTQKSLSLSPG light: DIQMTQSPSSVSASVGDRVTITCRASQGISSWLAWYQQKPGKAPKLLIYAASSLQSGVPSRFSGSGSGTDFTLTISSLQPEDFATYYCQQGVSFPRTFGGGTKVEIKRTVAAPSVFIFPPSDEQLKSGTASVVCLLNNFYPREAKVQWKVDNALQSGNSQESVTEQDSKDSTYSLSSTLTLSKADYEKHKVYACEVTHQGLSSPVTKSFNRGEC
2 | 0.029 | 47000 | 0.034 | 44000 | 0.022 | 64000 | 0.058 | 0.04 | 690000 | 0.025 | – | – | AB0621 F3' CEACAM5 TriNKET (bispecific antibody, human IgG1, kappa) DIVMTQSPDSLAVSLGERATINCKSSHSLLYGNFQNNYLAWYQQKPGQPPKLLIYWASTRESGVPDRFSGSGSGTDFTLTISSLQAEDVAVYYCQQYYSYPYTFGCGTKLEIKGGGGSGGGGSGGGGSGGGGSQVQLVQSGAEVKKPGASVKVSCKASGYTFTAYTIHWVRQAPGQCLEWMGYINPSSGYTEYNQKFKDRTTLTADTSISTAYMELSRLRSDDTAVYYCTREGGLLWFDYWGQGTLVTVSSGSDKTHTCPPCPAPELLGGPSVFLFPPKPKDTLMISRTPEVTCVVVDVSHEDPEVKFNWYVDGVEVHNAKTKPREEQYNSTYRVVSVLTVLHQDWLNGKEYKCKVSNKALPAPIEKTISKAKGQPREPRVYTLPPCRDELTKNQVSLTCLVKGFYPSDIAVEWESNGQPENNYKTTPPVLVSDGSFTLYSKLTVDKSRWQQGNVFSCSVMHEALHNHYTQKSLSLSPG heavy: EVQLVESGGGLVKPGGSLRLSCAASGFTFSSYSMNWVRQAPGKGLEWVSSISSSSSYIYYADSVKGRFTISRDNAKNSLYLQMNSLRAEDTAVYYCARGAPIGAAAGWFDPWGQGTLVTVSSASTKGPSVFPLAPSSKSTSGGTAALGCLVKDYFPEPVTVSWNSGALTSGVHTFPAVLQSSGLYSLSSVVTVPSSSLGTQTYICNVNHKPSNTKVDKKVEPKSCDKTHTCPPCPAPELLGGPSVFLFPPKPKDTLMISRTPEVTCVVVDVSHEDPEVKFNWYVDGVEVHNAKTKPREEQYNSTYRVVSVLTVLHQDWLNGKEYKCKVSNKALPAPIEKTISKAKGQPREPQVCTLPPSRDELTENQVSLTCLVKGFYPSDIAVEWESNGQPENNYKTTPPVLDSDGSFFLYSWLTVDKSRWQQGNVFSCSVMHEALHNHYTQKSLSLSPG light: DIQMTQSPSSVSASVGDRVTITCRASQGISSWLAWYQQKPGKAPKLLIYAASSLQSGVPSRFSGSGSGTDFTLTISSLQPEDFATYYCQQGVSFPRTFGGGTKVEIKRTVAAPSVFIFPPSDEQLKSGTASVVCLLNNFYPREAKVQWKVDNALQSGNSQESVTEQDSKDSTYSLSSTLTLSKADYEKHKVYACEVTHQGLSSPVTKSFNRGEC
3 | 0.0019 | 210000 | 0.0082 | 180000 | 0.0064 | 260000 | 0.036 | 0.029 | 830000 | 0.016 | – | – | AB0411 F3' CEACAM5 TriNKET (bispecific antibody, human IgG1, kappa) DIQLTQSPATLSVSPGERATLSCRASQSVSSSYLAWYQQKPGQAPRLLIYGASSRATGIPDRFSGSGSGTDFTLTISRLEPEDFAVYYCQQYNNWPLTFGCGTKVEIKGGGGSGGGGSGGGGSGGGGSQVQLVQSGGGLVQPGGSLRLSCAASGFTFTSYAMSWVRQAPGKCLEWVSAISGTGDSTFYADSVKGRFTFSRDNSKNTLYLQMNSLRAEDTAVYYCAKDLGWLQYGLFDYWGQGTLVTVSSGSDKTHTCPPCPAPELLGGPSVFLFPPKPKDTLMISRTPEVTCVVVDVSHEDPEVKFNWYVDGVEVHNAKTKPREEQYNSTYRVVSVLTVLHQDWLNGKEYKCKVSNKALPAPIEKTISKAKGQPREPRVYTLPPCRDELTKNQVSLTCLVKGFYPSDIAVEWESNGQPENNYKTTPPVLVSDGSFTLYSKLTVDKSRWQQGNVFSCSVMHEALHNHYTQKSLSLSPG heavy: EVQLVESGGGLVKPGGSLRLSCAASGFTFSSYSMNWVRQAPGKGLEWVSSISSSSSYIYYADSVKGRFTISRDNAKNSLYLQMNSLRAEDTAVYYCARGAPIGAAAGWFDPWGQGTLVTVSSASTKGPSVFPLAPSSKSTSGGTAALGCLVKDYFPEPVTVSWNSGALTSGVHTFPAVLQSSGLYSLSSVVTVPSSSLGTQTYICNVNHKPSNTKVDKKVEPKSCDKTHTCPPCPAPELLGGPSVFLFPPKPKDTLMISRTPEVTCVVVDVSHEDPEVKFNWYVDGVEVHNAKTKPREEQYNSTYRVVSVLTVLHQDWLNGKEYKCKVSNKALPAPIEKTISKAKGQPREPQVCTLPPSRDELTENQVSLTCLVKGFYPSDIAVEWESNGQPENNYKTTPPVLDSDGSFFLYSWLTVDKSRWQQGNVFSCSVMHEALHNHYTQKSLSLSPG light: DIQMTQSPSSVSASVGDRVTITCRASQGISSWLAWYQQKPGKAPKLLIYAASSLQSGVPSRFSGSGSGTDFTLTISSLQPEDFATYYCQQGVSFPRTFGGGTKVEIKRTVAAPSVFIFPPSDEQLKSGTASVVCLLNNFYPREAKVQWKVDNALQSGNSQESVTEQDSKDSTYSLSSTLTLSKADYEKHKVYACEVTHQGLSSPVTKSFNRGEC
